Experimental data reported in patent publication US7157616B2, “Method of selecting non-diabetogenic milk or milk products and milk or milk products so selected” (priority 1994, dated 2007).
Residue numbers refer to the chain shown, from its start. Where two headings read alike, the source gives them in different places. Marks after values point to notes of the source that are not given here. Blank lines part the entries; values can stand above or below the molecule they belong to. Ends that are not written are not given here.

What was measured:
normal human macrophage = assay: Binding of tritiated hexapeptides to normal PB monocyte/macrophages; details: for CPM bound: +Glucose, NaN3, Captopril, Benzylsuccinate, Elastatinal
From the text: (§1) Using the method described by M'Hamiel Jaziri et al (1992) the human macrophage binding of the bovine peptides Pro-63 to Asn-68 (from the β-casein A1 and A2 variant sequences) were studied and compared with the binding of the peptide Val-54 Tyr-59 from human β-peptide to each of a normal human macrophage and a prediabetic human macrophage.

[1] = test system: prediabetic human macrophage; assay: Binding of tritiated hexapeptides to prediabetic PB monocyte/macrophages; details: for CPM bound: +Glucose, NaN3, Captopril, Benzylsuccinate, Elastatinal
From the text: as §1

human macrophage = details: cited from earlier work
[2] = molecular target: binding site on normal human PB monocyte/macrophages (human); assay: binding of tritiated hexapeptide to PB monocyte/macrophages
[3] = molecular target: binding site on prediabetic human PB monocyte/macrophages (human); assay: as above
[4] = molecular target: binding site on normal human PB monocyte/macrophages (human); assay: binding of tritiated hexapeptide to PB monocyte/macrophages; reference bovine A1 peptide
[5] = molecular target: binding site on prediabetic human PB monocyte/macrophages (human); assay: as above
murine macrophages = details: cited from earlier work
NOD mice = assay: Diabetes incidence in NOD mice fed β-casein A1/A2 variants, whey or Bos indicus casein as 10% additions to Prosobee; assay type: in vivo, mouse; details: for Number of Animals Developing Diabetes by 250 days / Percentage of animals developing diabetes by 250 days: 10% addition to Prosobee infant formula from weaning
From the text: Similar groups of mice were fed a diet of the soy infant formula Prosobee™ and 10% W/W of: […]
d) Bos indicus casein, or
e) a 50/50 mixture of β-casein A1 variant/A2 variant.
The β-casein A1 variant precipitated diabetes in […] cases, the A2 variants in no cases and the A1/A2 mixture in 4 of 20 cases. The result mid-way between the […] results is consistent with there being no interaction between A1 and A2.
Lactic casein was manufactured in the New Zealand Dairy Research Institute Pilot Plant from the β-casein A1A1 and A2A2 phenotype bulk milks using methods essentially identical to those used in a standard New Zealand commercial lactic casein manufacturing dairy factory (see Muller, 1986). These caseins together with other constituents were then used in the feeding trials as described in Examples 2 and 3.

Molecule: Human: tritiated hexapeptide Val-54 to Tyr-59 from human β-casein (VEPIPY; also: tritiated) [reference compound]
Ratio */** (Human / Bovine A1 CPM) (normal human macrophage; NORMAL PBM (N = 3)): 1.2
CPM bound (normal human macrophage; NORMAL PBM (N = 3)): 2750* CPM
binding to normal human macrophages (normal human macrophage): bind specifically
Ratio */** (Human / Bovine A1 CPM) ([1]; PREDIABETIC PBM (N = 3)): 0.31
CPM bound ([1]; PREDIABETIC PBM (N = 3)): 1400* CPM
binding to prediabetic macrophages [1]: bind specifically
binding site on the human macrophage (human macrophage): specific binding site

B1: bovine β-casein A2 hexapeptide Pro-63 to Asn-68 (peptide)
peptide: PGPIPN
modifications: also: tritiated
CPM [2]: 2900 CPM
CPM [3]: 2750 CPM

B2: β-casein A1 variant: bovine β-casein A1 variant (SEQ ID NO: 2); casein made from milk of β-casein A1A1 phenotype cows (protein)
chain: RELEELNVPGEIVESLSSSEESITRIDKKIEKFQSEEQQQTEDELQDKIHPFAQTQSLVYPFPGPIHNSLPQNIPPLTQTPVVVPPFLQPEVMGVSKVKEAMAPKHKEMPFPKYPVQPFTESQSLTLTDVENLHLPPLLLQSWMHQPHQPLPPTVMFPPQSVLSLSQSKVLPVPEKAVPYPQRDMPIQAFLLYQQPVLGPVRGPFPIIV
diabetogenic activity (words) (NOD mice): diabetogenic
Number of Animals Developing Diabetes by 250 days (NOD mice): 9
Percentage of animals developing diabetes by 250 days (NOD mice): 45%
diabetogenic activity (words) (NOD mice; listed as A1 variant): does have diabetogenic activity

B3: β-casein A2 variant: bovine β-casein A2 variant; casein made from milk of β-casein A2A2 phenotype cows (protein)
chain: B2 chain with H67P
diabetogenic activity (words) (NOD mice): is not
Number of Animals Developing Diabetes by 250 days (NOD mice): 0
Percentage of animals developing diabetes by 250 days (NOD mice): 0%
Number of Animals Developing Diabetes by 250 days (NOD mice; listed as A2 variants): no cases
diabetogenic activity (words) (NOD mice; listed as A2 variant): do not show diabetogenic activity

B4: bovine β-casein A1 hexapeptide Pro-63 to Asn-68 (Pro-Gly-Pro-Ile-His-Asn) (peptide)
peptide: PGPIHN
modifications: also: tritiated
CPM [2]: 2220 CPM
CPM [3]: 4500 CPM

Second part, led by results:

CPM bound (normal human macrophage; NORMAL PBM (N = 3)): 2900 CPM
CPM bound ([1]; PREDIABETIC PBM (N = 3)): 2750 CPM
Molecule: Bovine A2: tritiated bovine hexapeptide Pro-63 to Asn-68 from the β-casein A2 variant sequence (proline at position 67) (PGPIPN; also: tritiated)

CPM [2]: 2750 CPM
CPM [3]: 1400 CPM
Ratio */** (human CPM to bovine A1 CPM) [4]: 1.2
Ratio */** (human CPM to bovine A1 CPM) [5]: 0.31
Molecule: peptide Val-54 to Tyr-59 from human β-casein (from UniProt P05814 69-74)

CPM bound (normal human macrophage; NORMAL PBM (N = 3)): 2220** CPM
binding to normal human macrophages (normal human macrophage): bind specifically
CPM bound ([1]; PREDIABETIC PBM (N = 3)): 4500** CPM
binding to prediabetic macrophages [1]: bind specifically
Molecule: Pro-Gly-Pro-Ile-His-Asn (PGPIHN; also: tritium label) [Bovine A1]
phagocytic activity of murine macrophages (murine macrophages): stimulate the phagocytic activity
